Blank lines part the entries; values can stand above or below the binder they belong to.
Tests used:
[1] = target: IgE antibodies of serum A; test: ImmunoCAP inhibition, inhibitor 100 µg/ml, cat dander extract solid phase
[2] = target: IgE antibodies of serum B; test: as above
[3] = target: IgE antibodies of serum C; test: as above
[4] = target: IgE antibodies of serum D; test: as above
[5] = target: IgE antibodies of serum E; test: as above
[6] = target: IgE antibodies of serum A; test: ImmunoCAP inhibition, inhibitor 100 µg/ml, horse dander extract solid phase
[7] = target: IgE antibodies of serum B; test: as above
[8] = target: IgE antibodies of serum C; test: as above
[9] = target: IgE antibodies of serum D; test: as above
[10] = target: IgE antibodies of serum E; test: as above
[11] = target: IgE antibodies of serum A; test: ImmunoCAP inhibition, inhibitor 100 µg/mL, horse dander extract solid phase
[12] = target: IgE antibodies of serum B; test: as above
[13] = target: IgE antibodies of serum C; test: as above
[14] = target: IgE antibodies of serum D; test: as above
[15] = target: IgE antibodies of serum E; test: as above
[16] = target: IgE antibodies of serum A; test: ImmunoCAP inhibition, inhibitor 100 µg/mL, competitor rEqu c s on solid phase
[17] = target: IgE antibodies of serum B; test: as above
[18] = target: IgE antibodies of serum C; test: as above
[19] = target: IgE antibodies of serum D; test: as above
[20] = target: IgE antibodies of serum E; test: as above
[21] = target: IgE antibodies of serum A; test: ImmunoCAP inhibition, inhibitor 100 µg/mL, competitor rFel d 1 on solid phase
[22] = target: IgE antibodies of serum B; test: as above
[23] = target: IgE antibodies of serum C; test: as above
[24] = target: IgE antibodies of serum D; test: as above
[25] = target: IgE antibodies of serum E; test: as above

Inhibition (%) [1]: -2%
Inhibition (%) [2]: 6%
Inhibition (%) [3]: -2%
Inhibition (%) [4]: 0%
Inhibition (%) [5]: 4%
Inhibition (%) [6]: -5%
Inhibition (%) [7]: -2%
Inhibition (%) [8]: 5%
Inhibition (%) [9]: 4%
Inhibition (%) [10]: 2%
Inhibition (%) [11]: -10%
Inhibition (%) [12]: -2%
Inhibition (%) [13]: 0%
Inhibition (%) [14]: -6%
Inhibition (%) [15]: -10%
Inhibition (%) [16]: 12%
Inhibition (%) [17]: 5%
Inhibition (%) [18]: 7%
Inhibition (%) [19]: 8%
Inhibition (%) [20]: 4%
Inhibition (%) [21]: -5%
Inhibition (%) [22]: -4%
Inhibition (%) [23]: -6%
Inhibition (%) [24]: -2%
Inhibition (%) [25]: -3%
B1: recombinant Equ c 15k (protein, from a related filing, horse)
chain 1: ATCPAVATDIASFFLLPDSLFKLQLIKYQAPPEAKDATMQVKQCINEISAGDRYIITETLGKIVLQCGA
chain 2: GSGCQLLEDVVEKTITAELSPAEYVEAVQEFIPDEATEKAAIQLKQCYLKQSNETLNDFRTMMNSMYNSAYCALF

Inhibition (%) [11]: 96%
Inhibition (%) [12]: 93%
Inhibition (%) [13]: 96%
Inhibition (%) [14]: 96%
Inhibition (%) [15]: 98%
Inhibition (%) [16]: 60%
Inhibition (%) [17]: 62%
Inhibition (%) [18]: 62%
Inhibition (%) [19]: 59%
Inhibition (%) [20]: 76%
Inhibition (%) [21]: -7%
Inhibition (%) [22]: -3%
Inhibition (%) [23]: -2%
Inhibition (%) [24]: 5%
Inhibition (%) [25]: 7%
B2: recombinant single chain Equ c s ab (protein)
chain: MDICPAVKEDVNIFLTGTPDDYVKKVSQYQRNPVILANAEKLKNCIDKKLTAEDKENALSVLEKIYSSDFCGGGGSGGGGSGGGGSCPSFYAVLGVLSLGSKTLLDTSLNLVNATEPEKVAMGKIQDCYNEAGVITKISDLIIMGTITTSPECISHALSTLTTDVQEGISKLNPLGRLEHHHHHH
